In assay [1] the target is T1, human PACAP27 (human, C-terminal leucine is amidated; 125I-labelled in Example 10).
T1 peptide: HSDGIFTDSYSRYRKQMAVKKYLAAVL
The assay can be described thus: SPR, Ab immobilised. In general terms: In SPR one partner is held on a chip, and binding of the other changes the refractive index at the surface.

Assay [2] has as its target T2, human PACAP38 (human, not fully specified; C-terminal lysine is amidated; N-terminal or C-terminal biotin in the HTRF and PC-12 cell binding assays).
T2 construct: synthetic peptide, bought; also called huPACAP (1-38)
T2 peptide: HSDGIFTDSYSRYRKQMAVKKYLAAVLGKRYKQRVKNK
The assay can be described thus: SPR, Ab immobilised. In outline: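 SPR with antibody amine-coupled to the chip and human PACAP38 flowed as analyte at 1.23–100 nM in PBST containing 0.25 M arginine, 0.2 mg/ml BSA and 0.005% azide, pH 7. Association lasted 2–4 min and dissociation 3–120 min. Kinetics were fitted to a 1:1 Langmuir model.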

The target in a further assay is T3, human VIP (human).
T3 construct: also called Vasoactive Intestinal Peptide
T3 peptide: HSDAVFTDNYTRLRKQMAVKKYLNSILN
Kind of assay: SPR, Ab immobilised.

Assay [3] addresses T2, human PACAP38. The assay can be described thus: inhibition of 30 nM biotin-PACAP38 binding to PC-12 cells, TRF. How it is done:
To identify antibodies that block PACAP38 binding to PAC1-R-expressing cells, adherent PC-12 cells (ATCC, Manassas, Va.) expressing PAC1-R were used in a Europium-based PAC1-R expressing cells binding assay.
Antibody solutions were incubated with N-terminal biotinylated PACAP38 at 10× the final concentration (100 nM or 30 nM) for 1 hr, then added to PC-12 cells that were plated 24 hrs. prior in black clear bottom 96 well plates (COSTAR™, Corning Incorporated, Corning, N.Y.) and further incubated for 1 hr at room temperature. After three washes, the cells were incubated with 20 μl Europium-labeled streptavidin (PerkinElmer, Waltham, Mass.) for 1 hr at room temperature. Cells were washed three times, then 20 μl DELFIA® Enhancement solution (PerkinElmer, Waltham, Mass.) was added to each well and incubated for 15 minutes with gentle shaking. Plates were read (Time Resolved Fluorescence (“TRF”)) on SPECTRAMAX® (Molecular Devices, Sunnyvale, Calif.) plate reader.
FIGS. 14A-14BB are representative of the inhibition curves obtained by this method (results are shown for Ab1, Ab2, Ab3, Ab4, Ab5, Ab6, Ab7, Ab8, Ab9, Ab10, Ab11, Ab12, Ab13, Ab14, Ab15, Ab16, Ab17, Ab18, Ab19, Ab1.H, Ab10.H, Ab22, Ab23, Ab3.H, Ab4.H, Ab5.H, Ab9.H, and Ab12.H, respectively) wherein the PAC1-R expressing cells were PC-12 cells.

For assay [4], the target named is T2, human PACAP38. The assay can be described thus: cell-based or functional assay.
Assay [5] deals with T2, human PACAP38. The assay can be described thus: HTRF binding, biotin-PACAP38. In outline: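 Antibody dilution series (top 100 nM final) incubated with N- or C-terminal biotinylated PACAP38 (35 nM final), alone or with 350 nM PACAP27 or VIP. HTRF with Eu³⁺ anti-human Fc donor and d2-streptavidin acceptor, 1 h at room temperature, read at 620/665 nm; EC₅₀ from binding curves.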
For orientation: In TR-FRET formats the signal depends on donor and acceptor labels being close together.

The target in assay [6] is T2, human PACAP38. Kind of assay: cell-based or functional assay.
Assay [7] addresses T2, human PACAP38. The assay can be described thus: cell-based or functional assay.
Assay [8] concerns the target T1, human PACAP27. Kind of assay: cell-based or functional assay.
In assay [9] the target is T1, human PACAP27. Kind of assay: inhibition of 0.1 nM 125I-PACAP27 binding to human PAC1-R membranes. The method, then:
To identify antibodies that block PACAP27 binding to PAC1-R, antibodies at an initial concentration of 30 nM were diluted in incubation buffer (50 mM Hepes pH 7.4, 1 mM CaCl₂, 5 mM MgCl₂, 0.2% BSA) and serial 1:3 dilutions were performed. Antibody dilutions (30 nM, 10 nM, 3 nM, 1 nM, 0.3 nM, 0.1 nM, 0.03 nM, 0.01 nM, 0.003 nM and 0.001 nM) were then mixed and pre-incubated at 25° C. for 30 minutes with 0.1 nM of ¹²⁵I-labelled PACAP27 in incubation buffer. The antibody: ¹²⁵I-labelled PACAP27 mixture was then added to 0.5 μg aliquots of cell membranes derived from Chem-1 cells expressing human recombinant PAC1-R long isoform in incubation buffer. The mixture was then incubated for 1 hour at 25° C. Following incubation, the samples were filtered and washed. Afterward, the filters were counted to quantitate ¹²⁵I-labelled PACAP27. As an experimental control, non-specific binding to the cell membranes was estimated using 0.1 μM of […] PACAP27.

B1: anti-PACAP antibody Ab22 (antibody, human IgG1, kappa, N297A, V domains shown)
VH: QEQLVESGGGLVQPEGSLTLTCTASGFDFSSNAMCWVRQAPGKGLEWIGSIYNADGKNYYAIWAKGRFTISRTSSTTVTLQMTSLTAADTATYFCARDFDLWGQGTLVTVSS
VL: AAVLTQTPSPVSAAVGGTVTINCQSSQSVYDNDWLAWFQQKPGQPPKLLIYLTSTLASGVPSRFSGSGSGTQFTLTISGVQCDDAATYYCLGGYDEDGDTHVFGGGTEVVVKR
notes: full-length rabbit/human chimeric antibody; PACAP38 specific
Turning to B1, in the assay with human PACAP27 [1], the koff – broadly, the rate constant with which the complex falls apart – was found to be 0.1 s⁻¹. Further, in the assay with human PACAP38 [2], the Kd (commonly the constant that tells how readily two partners part at equilibrium) is no more than 0.027 nM, the koff was no more than 1e-05 s⁻¹ and the kon (commonly the second-order rate constant of association) came out at 370000 M⁻¹ s⁻¹. Moreover, in the assay with human VIP, the equilibrium dissociation constant (Kd) amounted to 690 nM, the koff amounted to 0.18 s⁻¹ and the kon turned out to be 270000 M⁻¹ s⁻¹. For the same molecule, the IC50 (usually the concentration at which inhibition is half-maximal) with human PACAP38 [3] was 13.8 nM. The “IC50, 5 nM PACAP38-induced human VPAC1-R mediated cAMP increase” value with human PACAP38 [4] came out at 1.3 nM. Besides, the EC50 – broadly, the concentration that produces a half-maximal response – with human PACAP38 [5] was 0.57 nM. In the assay with human PACAP38 [6], the “IC50, 0.1 nM PACAP38-induced PAC1-R mediated cAMP increase” value amounted to 0.101 nM. The “IC50, 1 nM PACAP38-induced human VPAC2-R mediated cAMP increase” value with human PACAP38 [7] is 0.515 nM.

B2: anti-PACAP antibody Ab12.H (antibody, human IgG1, kappa, N297A, V domains shown)
VH: EVQLVESGGGLVQPGGSLRLSCAASGFSLSSYAMGWVRQAPGKGLEWIGDISTYGTTDYASWVYGRFTISRDNSKNTVYLQMNSLRAEDTAVYFCARDYWLSLWGQGTLVTVSS
VL: AAQLTQSPSTLSASVGDRVTITCQSSQSVYDNNALAWYQQKPGKAPKLLIYAASTLASGVPSRFSGSGSGTEFTLTISSLQPDDFATYYCLGGYYDPADNAFGGGTKVEIKR
notes: humanized form of Ab12, full length
For the molecule B2, the figures for the Kd with human PACAP27 [1], with human PACAP38 [2] and with human VIP were 0.3 nM, no more than 0.026 nM and 51 nM, respectively. In addition, the koff with human PACAP27 [1] is 7.9e-05 s⁻¹; with human PACAP38 [2], no more than 1e-05 s⁻¹; in the assay with human VIP it was 0.014 s⁻¹. For the same molecule, the kon in the assay with human PACAP27 [1] is 260000 M⁻¹ s⁻¹; with human PACAP38 [2], 380000 M⁻¹ s⁻¹; in the assay with human VIP it was 280000 M⁻¹ s⁻¹. Also, the IC50 with human PACAP38 [3] came out at 68.1 nM; in the assay with human PACAP27 [9], 0.16 nM. The “IC50, 5 nM PACAP38-induced human VPAC1-R mediated cAMP increase” value with human PACAP38 [4] stood at 1.28 nM. In the assay with human PACAP27 [8], the “IC50, 0.1 nM PACAP27-induced PAC1-R mediated cAMP increase” value was 0.0863 nM. Moreover, in the assay with human PACAP38 [6], the “IC50, 0.1 nM PACAP38-induced PAC1-R mediated cAMP increase” value worked out at 0.114 nM. Moreover, in the assay with human PACAP38 [7], the “IC50, 1 nM PACAP38-induced human VPAC2-R mediated cAMP increase” value is 0.653 nM.

B3: anti-PACAP antibody Ab23 (antibody, human IgG1, kappa, N297A, V domains shown)
VH: QSVEESGGRLVTPGTPLTLTCTVSGFSLNNYAMSWVRQAPGKGLEWIGIMGVNDITYYASWAKGRFTISKTSTTVDLKMTSLTTEDTATYFCTREIRDDGDSSDKLWGPGTLVTVSS
VL: AIKMTQTPSSVSAAVGGTVTINCQASEDIYTNLAWYQQKPGQPPNLLIYDASDLASGVPSRFSGSGDGTQFTLTISAVQCEDAATYYCQGVAWSSNTGYGSAFGGGTEVVVKR
notes: as for B1
In the assay with human PACAP27 [1], B3 displayed a Kd of 35 nM, a koff of 0.031 s⁻¹ and a kon of 890000 M⁻¹ s⁻¹. In the assay with human PACAP38 [2], the affinity, expressed as Kd, was 0.071 nM; the koff worked out at 3.6e-05 s⁻¹; the kon amounted to 510000 M⁻¹ s⁻¹. In the assay with human VIP, this molecule gave a Kd of 730 nM, an off-rate constant (koff) of 0.32 s⁻¹ and a kon of 430000 M⁻¹ s⁻¹. This molecule displayed an IC50 with human PACAP38 [3] of 14.9 nM. The “IC50, 5 nM PACAP38-induced human VPAC1-R mediated cAMP increase” value with human PACAP38 [4] worked out at 2.67 nM. Further, the EC50 with human PACAP38 [5] came out at 0.56 nM. The “IC50, 0.1 nM PACAP38-induced PAC1-R mediated cAMP increase” value with human PACAP38 [6] was 0.115 nM. In the assay with human PACAP38 [7], the “IC50, 1 nM PACAP38-induced human VPAC2-R mediated cAMP increase” value turned out to be 1.79 nM.

B4: anti-PACAP antibody Ab1.H (antibody, human IgG1, kappa, N297A, V domains shown)
VH: EVQLVESGGGLVQPGGSLRLSCAASGFTVSSAVMNWVRQAPGKGLEWIGSIVASGTTYYASSANGRFTISRDNSKNTLYLQMNSLRAEDTAVYYCARGGGEFFIWGQGTLVTVSS
VL: DIQMTQSPSTLSASVGDRVTITCQSSESVYSNYLSWYQQKPGKAPKFLIYQASNLASGVPSRFSGSGSGTEFTLTISSLQPDDFATYYCAGGYSENIVGFGGGTKVEIKR
notes: humanized form of Ab1, full length
With B4, the Kd with human PACAP27 [1] is no more than 0.013 nM; in the assay with human PACAP38 [2] it was no more than 0.021 nM; in the assay with human VIP it was 4800 nM. In addition, the results for the koff with human PACAP27 [1], with human PACAP38 [2] and in the assay with human VIP were no more than 1e-05 s⁻¹, no more than 1e-05 s⁻¹ and 0.18 s⁻¹, respectively. Also, the figures for the association rate constant (kon) with human PACAP27 [1], with human PACAP38 [2] and with human VIP were 760000 M⁻¹ s⁻¹, 470000 M⁻¹ s⁻¹ and 38000 M⁻¹ s⁻¹, respectively. Besides, the concentration for half-maximal inhibition (IC50) in the assay with human PACAP38 [3] was 56.3 nM; with human PACAP27 [9], 0.7 nM. Further, the “IC50, 5 nM PACAP38-induced human VPAC1-R mediated cAMP increase” value in the assay with human PACAP38 [4] worked out at 1.02 nM. Also, the EC50 with human PACAP38 [5] is 0.46 nM. The “IC50, 0.1 nM PACAP27-induced PAC1-R mediated cAMP increase” value with human PACAP27 [8] was determined as 0.0577 nM. In the assay with human PACAP38 [6], the “IC50, 0.1 nM PACAP38-induced PAC1-R mediated cAMP increase” value is 0.26 nM. For the same molecule, the “IC50, 1 nM PACAP38-induced human VPAC2-R mediated cAMP increase” value in the assay with human PACAP38 [7] is 0.983 nM.

(Values after patent US20190233498A1 (H LUNDBECK A S, published 2019).)
